This passage reports protein stability index results from the supplement of paper PMC10567573.

± gives the standard deviation.

The nature of the series: protein stability index of a GFP-peptide fusion (GPS, HEK-293T) (PSI 1-6); higher = more stable.
The mark [1] stands for this setting: treatment: DMSO, c terminus: a fixed tail appended.
Where [2] appears, read: treatment: MLN4924 1 uM, 8 h, c terminus: a fixed tail appended.
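Also: 24-mer peptide tiles fused after GFP, lentivirally expressed, FACS-sorted into six equal bins by GFP/DsRed ratio, decoded by Illumina sequencing, PSI is the read-weighted mean bin number.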

Consider FSHTLVSLSLFGCTNIFYEEENPG [ZER1], for which the protein stability index reads like this: under setting [1], 2.65 ± 0.12; under setting [2], 2.29 ± 0.029.

FSTSKWNHLLHHFVIGHLKGAPAS [FADS1]: the protein stability index worked out at 2.65 ± 0.67 under setting [1] and 2.17 ± 0.38 under setting [2]. Sequence FSVLEGEKNNHRAKDLRAPPEQGK [SOAT1] came in with a protein stability index under setting [1] of 5.08 ± 0.26 and a protein stability index under setting [2] of 4.92 ± 0.18. With FTFEGFSRLRFLNLGRMIDWVPVE [ZER1], the protein stability index runs as follows: under setting [1], 2.76 ± 0.63; under setting [2], 2.81 ± 0.43. Taken in the same sequence, the figures for FTTSILRHWCMKHDELLAEHIKSL [INTS3] were 2.22 ± 0.2 and 2.17 ± 0.18. On the same counts, the results for GAVAPPVSGDLTKEDIDLIDILWR [NFE2L1] are 3.16 ± 0.17 and 3.67 ± 0.53.

As for GAVLALVAIFIMSLNKRHSSGDGN [MFSD9], the protein stability index reads like this: under setting [1], 3 ± 0.21; under setting [2], 3.43 ± 0.59. On the same counts, the results for GAYDFPSPEWDTVTPEAKNLINQM [CAMK2B] are 3.76 ± 0.25 and 3.85 ± 0.25. GCLAEAVSVIQSIPIFNETGRFSF [HACD3]: the protein stability index is 2.91 ± 0.66 under setting [1] and 2.6 ± 0.77 under setting [2]. As to GDTPIRKKEELLFDDGDDIMATLG [FBF1], the protein stability index came to 4.35 ± 0.18 under setting [1] and 4.47 ± 0.29 under setting [2].

For GEAQPGLPQEDPSTSQGCAQPQGA [FEM1A], the protein stability index amounted to 5.36 ± 0.21 under setting [1] and 5.51 ± 0.13 under setting [2]. The sequence GEQEHSQQKEEEEEMAVVPQGLFR [CHGA] displayed a protein stability index under setting [1] of 5.45 ± 0.43 and a protein stability index under setting [2] of 5.55 ± 0.28. As for GFGVLRLDADAAQRVVYLEGCGPP [TSPAN10], the protein stability index is, setting by setting: under setting [1], 2.88 ± 0.33; under setting [2], 2.65 ± 0.13.

Turning to GGKKDKARYIDTHNRVSKEDEDIY [PLK2], the protein stability index came to 4.37 ± 0.27 under setting [1] and 4.73 ± 0.4 under setting [2].

Turning to GGLEHVPSSSSIHNGDMEKILLDA [BNIP3L], the protein stability index runs as follows: under setting [1], 4.85 ± 0.23; under setting [2], 4.68 ± 0.61. For GGLFVGKEGPMIHSGSVVGAGLPQ [CLCN6], the protein stability index runs as follows: under setting [1], 3.39 ± 0.16; under setting [2], 3.46 ± 0.44.

For the sequence GGLNTETNEKALEAVFGKYGRIVE [RBMX], the protein stability index by setting is: under setting [1], 3.59 ± 0.26; under setting [2], 3.22 ± 0.47. For the sequence GGMMPPGPGIPPLMPGMPPGMPPP [ZNF207], the protein stability index was determined as 3.89 ± 0.43 under setting [1] and 4.09 ± 0.15 under setting [2]. With GGPGRQTTSPNVLWPTPGHLSPLV [ESR2], the protein stability index reads like this: under setting [1], 2.97 ± 0.22; under setting [2], 3.15 ± 0.048. As for GGQCCRRQDSPSPDFYKQSSPNLQ [PCDHGC5], the protein stability index under setting [1] amounted to 3.77 ± 0.33 and the protein stability index under setting [2] was 3.78 ± 0.23.

For GGSGPAGLRASTSDGILRGNGTGY [RHOBTB2], the protein stability index is 4.31 ± 0.27 under setting [1] and 4.24 ± 0.39 under setting [2]. With GIELMEVDPIGHVYIFATCLGLSY [MAGEA6], the protein stability index came to 3.02 ± 0.66 under setting [1] and 2.92 ± 0.41 under setting [2]. Take GKEQSRRDDLEALGHMFMYFLRGS [CSNK1G3]: the protein stability index by setting is: under setting [1], 2.38 ± 0.34; under setting [2], 2.29 ± 0.45.

GKLKCDICGIICIGPNVLMVHKRS [IKZF1]: the protein stability index came to 2.91 ± 1.6 under setting [1] and 2.26 ± 0.75 under setting [2]. Take GKNLYTNEYVAIKLEPIKSRAPQL [CSNK1G1]: the protein stability index amounted to 2.35 ± 0.032 under setting [1] and 2.58 ± 0.13 under setting [2]. Take GKSPVNMVTVAMVAGQCEFAHILH [ZNF649]: the protein stability index runs as follows: under setting [1], 2.63 ± 0.63; under setting [2], 2.34 ± 0.62.

For GLHLTDPSQRLVQNCLWTLRNLSD [CTNNB1], the protein stability index runs as follows: under setting [1], 2.29 ± 0.31; under setting [2], 2.45 ± 0.27. Taken in the same sequence, the figures for GLLALAIGLWGLAVKGSLGSDLGG [TSPAN10] were 4.49 ± 0.53 and 3.4 ± 0.37. For GMDFHRFYFENALSKSNKPIHTII [CAMK2D], the protein stability index by setting is: under setting [1], 2.94 ± 1.8; under setting [2], 2.06 ± 1.1. On the same counts, the results for GNFDWVGNDFTQNAGTGLVINQAD [PLD5] are 4.7 ± 0.69 and 4.47 ± 0.27.

GNQLISNNIKFKKSSILTRAGEQR [CLCN6]: the protein stability index amounted to 3.78 ± 0.13 under setting [1] and 4.06 ± 0.44 under setting [2]. Regarding GQQDLFRVLKAYTLYRPEEGYCQA [TBC1D10A], the protein stability index reads like this: under setting [1], 2.03 ± 0.37; under setting [2], 2.16 ± 0.31. On to GQQDQVKLHDFFSYLMDHFIPSSH [PPEF2], for which the protein stability index under setting [1] came out at 2.81 ± 0.57 and the protein stability index under setting [2] was 2.89 ± 0.71.

With GQRGAQGAGRRRRAGGPPRPMSEP [SMAD6], the protein stability index reads like this: under setting [1], 4.96 ± 0.21; under setting [2], 5.08 ± 0.42.

Regarding GRDELGGGRRPGTSPALLQGTAEE [CDKN1A], the protein stability index reads like this: under setting [1], 5.4 ± 0.34; under setting [2], 5.41 ± 0.24. As to GSANDYKDTLGKGSSLSAPSKKTS [KRT71], the protein stability index reads like this: under setting [1], 5.33 ± 0.22; under setting [2], 5.3 ± 0.22. Take GSDYVNANYIDGYRKQNAYIATQG [PTPRD]: the protein stability index is, setting by setting: under setting [1], 3.51 ± 1.2; under setting [2], 3.46 ± 0.28.

Regarding GSINLLESPQLATLAEDVTAALAK [MAP2], the protein stability index reads like this: under setting [1], 4.12 ± 0.066; under setting [2], 4.05 ± 0.27. GSLCAIAGVLTIALPVPVIVSNFN [KCNA4]: the protein stability index reads like this: under setting [1], 3.33 ± 0.42; under setting [2], 3.13 ± 0.36. As to GSPVNQQPKKNNVMARTRLVVPNK [FAM219A], the protein stability index under setting [1] was determined as 4.17 ± 0.1 and the protein stability index under setting [2] was determined as 4.33 ± 0.31. For the sequence GSTMLIEAAKGGHTSVVCYLLDYP [ANKRD17], the protein stability index reads like this: under setting [1], 2.59 ± 0.38; under setting [2], 2.55 ± 0.56. Sequence GTTPQISPSTLIGSLRTLELGSES [HDAC6] came in with a protein stability index under setting [1] of 4.52 ± 0.27.

For GVAGGLNRNQGLNRLMLAVRDMMA [TCF25], the protein stability index was 3.12 ± 0.38 under setting [1] and 3.02 ± 0.36 under setting [2]. Taken in the same sequence, the figures for GVCIRRCTVLRDARIRSHSWLESC [GMPPB] were 2.31 ± 0.35 and 2.15 ± 0.12. Regarding GVKRKADTTTPTTSAITASRSESP [BRD3], the protein stability index runs as follows: under setting [1], 5.22 ± 0.15; under setting [2], 5.19 ± 0.16. As for GVLHKHQRALHKYSLMKRQMMSAT [SNX8], the protein stability index is 2.4 ± 0.18 under setting [1] and 2.58 ± 0.24 under setting [2]. As for GWGEVMLMADKVLRWERAWFPPAI [ARL6IP1], the protein stability index by setting is: under setting [1], 2.87 ± 0.48; under setting [2], 3.04 ± 0.78. In the case of GYEVAAAQGPNKPGYLVGRNNANG [CPN1], the protein stability index runs as follows: under setting [1], 4.2 ± 0.14; under setting [2], 4.32 ± 0.21.

For GYPLPKLDMNFSLENREEPWVKEL [ZNF449], the protein stability index reads like this: under setting [1], 3.53 ± 0.12; under setting [2], 3.7 ± 0.2.

HARYRVIHFIAVAVCLLGVGTMVG [SLC35F2]: the protein stability index reads like this: under setting [1], 2.42 ± 0.42; under setting [2], 2.28 ± 0.15. The sequence HDGHLYLGSFRSPFLCRLSLQAV [APMAP] returned a protein stability index (treatment: DMSO, c terminus: native) of 2.82 ± 0.33 and a protein stability index (treatment: MLN4924 1 uM, 8 h, c terminus: native) of 3.31 ± 0.55.

With HDGKNQPSKTYPAFLEPDETFIVP [SPSB1], the protein stability index is, setting by setting: under setting [1], 4.28 ± 0.19; under setting [2], 4.25 ± 0.39.

With HGGSLLGKKYNWSCDDLMGGGGLH [GFOD1], the protein stability index runs as follows: under setting [1], 2.73 ± 0.28; under setting [2], 2.95 ± 0.27. Consider HHWDHARGNPELARLRPGLAVLGA [HAGHL], for which the protein stability index is, setting by setting: under setting [1], 3.1 ± 0.34; under setting [2], 3.08 ± 0.45. On to HICTNYNSVCSKFRKEIKSKSADN [RHOBTB1], for which the protein stability index by setting is: under setting [1], 3.37 ± 0.21; under setting [2], 3.54 ± 0.15. Regarding HIPSQEVPGTQVGQGGKLWDPSVQ [ZNF263], the protein stability index by setting is: under setting [1], 4.35 ± 0.12; under setting [2], 4.44 ± 0.24. In the case of HISNQKMPTGPPEDRLSLKFLPSS [DRICH1], the protein stability index under setting [1] turned out to be 3.21 ± 0.14 and the protein stability index under setting [2] came out at 3.44 ± 0.12. In the case of HISSCKLGPQVSLDPMKNVTCENG [LOXL2], the protein stability index is, setting by setting: under setting [1], 4.15 ± 0.39; under setting [2], 4.14 ± 0.49. Take HISTFINELDSGFRLLNLKNDSLR [TSN]: the protein stability index was 2.23 ± 0.13 under setting [1] and 2.1 ± 0.25 under setting [2]. With HLLIPELGACVAPGGNLIVELARY [DNAAF3], the protein stability index by setting is: under setting [1], 2.28 ± 0.085; under setting [2], 2.25 ± 0.24. HMNRLQSQRAMLLQGTESLNRATQ [VTI1B] gave a protein stability index under setting [1] of 4.12 ± 0.12 and a protein stability index under setting [2] of 3.895 ± 0.03. Consider IAANLENKATNTDHLTTVLYLQLA [C8orf76], for which the protein stability index under setting [1] was 2.36 ± 0.28 and the protein stability index under setting [2] is 2.17 ± 0.25.

For the sequence IARVHGTFGAAACSIGFAVRYLNA [POP5], the protein stability index stood at 2.22 ± 0.26 under setting [1] and 2.25 ± 0.56 under setting [2]. IDKFGFIVGSQGAEGALEEVPLEV [TBC1D10A]: the protein stability index runs as follows: under setting [1], 4.32 ± 0.16; under setting [2], 4.42 ± 0.34. On the same counts, the results for IDSRARRNLGSINTELQDVQRIMV [SEC22B] are 2.8 ± 0.28 and 2.87 ± 0.29.

For the sequence IEKYLRRQLTKPRPVILDPADPTG [OAS1], the protein stability index reads like this: under setting [1], 3.09 ± 0.2; under setting [2], 3.25 ± 0.24. Regarding IERLRSLSPKIMQEAFLVQEVVEL [TBC1D10A], the protein stability index is, setting by setting: under setting [1], 2.08 ± 0.36; under setting [2], 2.09 ± 0.29. Turning to IETIKIIETEDQIDKKPVSEKTDE [MIA2], the protein stability index runs as follows: under setting [1], 5.02 ± 0.39; under setting [2], 4.7 ± 0.94. Turning to IFDDNFIEERKQGLEQFINKVAGH [SNX3], the protein stability index turned out to be 3.03 ± 0.39 under setting [1] and 3.32 ± 0.44 under setting [2]. In the case of IGDTSVSYKYTSRYVLKAGQTVTI [LMNB1], the protein stability index worked out at 2.49 ± 0.73 under setting [1] and 2.29 ± 0.5 under setting [2].

On to IGEGMTKYDYLMTLHGVVNESTVC [TENT5D], for which the protein stability index came to 2.53 ± 0.19 under setting [1] and 2.33 ± 0.19 under setting [2]. Consider IGGAAPSLGALDLLGPATGCLLDD [SERTAD1], for which the protein stability index runs as follows: under setting [1], 4.28 ± 0.19; under setting [2], 4.17 ± 0.2.
